The source of these data is publication PMC8670721.

The test system of data set [1] is LIN28A (LIN28-TAT recombinant protein, Peprotech). Description: EMSA. (In EMSA bound probe runs differently from free probe, usually more slowly.)
The test system is the same in data set [2]. Description: filter binding.

pKd: −log10 of the molar value.

Turning to biotin-labeled pre-let-7a, the pKd (as a rule, −log10 of the Kd, conventionally taken in molar units) is 7.60 in data set [1] and 8.00 in data set [2].
